Results from patent publication US11851478.

Target: Chikungunya virus (CHIKV), infectious virus of the focus reduction neutralization test (Chikungunya virus)
Assay: cell-based or functional assay

Row | Binder | IC50 FRNT* (ng/mL) against CHIKV
1 | CHKV-24 (antibody, V domains shown) VH: QVQLVESGGGVVQPGKSLRLSCAASGFTFRNYGMHWVRQAPGKGLDWVALISYDGTHKYYKDSLKGRFTISRDNFQNTVDLQINSLRPDDTAVYYCAKELATSGVVEPLDSWGQGTLVTVSS VL: EIVLTQSPGTLSLSPGERATLSCRASQSLVSSYFGWYQQKRGQSPRLLIYAASTRATGIPDRFSGSGSGTDFTLTISRLEPEDFAVYYCQQYGNTPFTFGGGTKVEIK | 4 ng/mL
2 | CHKV-53 (antibody, V domains shown) VH: QLQLQESGPGLVKPSETLSLTCTVSGGSISSTSHYWGWIRQPPGKGLEWIGNIYYSGSTYYKSSLKSRVAISVDTSKNQFSLKLSSVTAADTAVYFCARVVVGGYYDNRGYYRGPPTPLYYFDYWGQGTLVTVSS VL: DIQMTQSPSSVSASVGDRVTISCRASPGISTWLAWYQQKPGKAPKLLIYAVSSLQSGVPSRFSGSGSGTDFTLTISSLQPEDFATYYCQQANSLSWTFGQGTKVEIK | 319 ng/mL
3 | CHKV-35 (antibody, V domains shown) VH: EVQLVESGGGLVPPGGSLRVSCAASGFTLRSYVMAWVRQAPGKGLEWVSGISGDGDHTYYADSVKGRFTISRDNSKNTLYLQMHSLRAEDTALYYCVKDWGIRGIYYPSGMDVWGQGTTVIVSS VL: SLELAQPPSVSVSPGQTARITCSGDGLPQAYAYWYQKKPGQAPVPLIYKDTERPSGIPERFSGSSSGTTVTLTISGVQAEDEADYYCQSADSIGTNVIFGGGTKLTVL | 11 ng/mL
4 | CHKV-32 (antibody, V domains shown) VH: QVQLVQSGAEVKKPGASVKVSCKASGYTFTTFAMHWVRQAPGQGLECMGWINTANGYTKYSQKFQGRVTITSDTSASTASMELSSLTSKDTAVYYCARVQDFGHYEGGYGYWGQGTLVTVSS VL: QSVLTQPPSVSGAPGQRVIISCTGSSSNIGAGYDVHWYQQLPGTAPKLLIYGNSYRPSGVPDRFSGSRSGTSASLAITGLQAEDEADYYCQSHDSSLNDFNVFGSGTKVTVL | 81 ng/mL
5 | CHKV-29 (antibody, V domains shown) VH: EVQLVESGGVVVQPGGSLRLSCAASGFNFDDYTMHWVRQAPGKGLEWVSLITWDGLSTYYADSMKGRFTISRDNSKDSLYLQMDSLRTEDTAFYYCVRDMGPGAVHFYFYGMDVWGQGTLVTVSS VL: QSALTQPASVSGSPGQSITISCTGTSSDVGNYNLVSWYQQHPGKVPKLIIYEVSKRPSGISKRFSASKSGNTASLTISGLQAEDEADYYCCSYAGSSGVFGAGTKLTVL | 86 ng/mL
6 | CHKV-48 (antibody, V domains shown) VH: QVQLQESGPGLVKPSQTLSLTCAVSGGSISSGGYSWSWIRQPPGKGLEWIGYIYYSGSTYYNPSLKSRLTISMDTSKNHFSLKLSSVTAADTAVYYCATDYCSSTSCNTGAPVNWGQGTLVTVSS VL: DIQLTQSPSFLSASVGDRVTITCRASQGISSYLAWYQQKPGKAPKLLINAASTLQSGVPSRFSGSGSGTEFTLTISSLQPEDFATYYCQQFNAYPYTFGQGTKLEIK | 37 ng/mL
7 | CHKV-50 (antibody, V domains shown) VH: EVQLVESGGGLVQPGRSLRLSCAASGFTFDDYAMHWVRQAPGKGLEWVSGISWNSGFIGYADSVKGRFTISRDNAKNSLYLQMNSLRAEDTALYYCAKDLGRAYSSGWYLFDYWGQGTLVTVSS VL: SYVLTQPPSVSVAPGKTARITCGGNNIGSKSVHWYQQLPGQAPVLVVYDDSDRPSGIPERFSGSNSGYTATLIISRVEAGDEADYYCQVWDSTSDHACVFGPGTKVTVL | 2270 ng/mL
8 | CHKV-31 (antibody, V domains shown) VH: EVQLVESGGGLVQPGGSLRLSCAASGFTFSNYAMSWVRQAPGKGLEWVSGISGSGRTTYYTDSVKGRFNISRDNTKNTLFLQMNSLRAEDTAVYYCVKDRAGWFGNYFDYWGQGTLVTVSS VL: DIQMTQSPSSLSASVGDRVTITCRASQGISNYLAWFQQKPGKAPKSLIYAASSLQSGVPSKFSGSRSGTNFTLTISSLQPEDFATYYCQQYNTYPPTFGQGTTVEIK | 684 ng/mL
9 | CHKV-27 (antibody, V domains shown) VH: QVQLVQSGAEVKKPGASVKVSCKPSGYNFIDYAMHWVRQAPGQRLEWMGWINAANDNREYSQKFQGRVTLTRDTSATTAYMELSSLTFEDTAVYYCARDRGTMVRGVGGWFDPWGQGTLVTVSS VL: SYVLTQPPSVSVAPGETARITCGGNNIGSKSVHWYQQKPVQAPVVVVYDDSDRPSGIPERFSGSNSGNTATLTISRVEAGDEADYYCQVWDSSSNHPVFGGGTKVAVL | 17 ng/mL
